The data set concerns the target Pax3 (GST fusion or 6xHis) (UniProt P24610 P24610:1-479). The data set can be described thus: EMSA; 25 C. Conditions: tags: GST-Pax3 or 6xHis-Pax3, bacterially expressed; label: 32P; overhangs. As for the experimental part: Probes were generated by end-labeling double-stranded oligonucleotides with γ³² P-dATP or PCR labeling with α³²P-dGTP. Probes were incubated with or without 6×-His-Pax3 or GST-PAX3 at 25° C., and the complexes were resolved on a 6% Tris-glycine polyacrylamide gel. The free probes are designated by the bottom bracket, and the shifted Pax3:DNA complex by the asterisk to the right of each gel.
Probes were generated by end labeling double-stranded oligonucleotides with γ³²P-dATP or PCR labeling with α³²P-dGTP. Probes were incubated with or without 6×-His-Pax3 or GST-PAX3 at 25° C., and the complexes were resolved on a 6% Tris-glycine polyacrylamide gel. The location of the free probes is indicated by the bracket at left, and the shifted Pax3:DNA complexes by the asterisks to the right of each gel.
On the technique in general: A gel shift assay detects complexes by their altered migration in electrophoresis.

Pax3 (GST fusion or 6xHis), sequence (P24610 whole entry, the tested form may be a part, one chain of several): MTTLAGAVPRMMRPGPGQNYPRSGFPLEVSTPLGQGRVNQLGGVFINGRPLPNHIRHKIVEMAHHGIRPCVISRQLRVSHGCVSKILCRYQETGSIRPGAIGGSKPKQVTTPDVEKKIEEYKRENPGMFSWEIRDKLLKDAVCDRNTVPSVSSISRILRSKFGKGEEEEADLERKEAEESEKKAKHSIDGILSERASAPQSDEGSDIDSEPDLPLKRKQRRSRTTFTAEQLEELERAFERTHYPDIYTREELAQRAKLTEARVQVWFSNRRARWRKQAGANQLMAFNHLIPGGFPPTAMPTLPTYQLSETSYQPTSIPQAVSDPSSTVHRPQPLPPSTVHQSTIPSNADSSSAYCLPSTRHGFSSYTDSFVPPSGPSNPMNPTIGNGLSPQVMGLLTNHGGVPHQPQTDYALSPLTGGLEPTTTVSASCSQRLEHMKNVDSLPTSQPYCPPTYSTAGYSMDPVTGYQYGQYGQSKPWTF

B1: 2x Pax3 oligo (dsDNA)
DNA 1: CAGTGACGATTAGCACCGTCACGCTTAGATATAGTGACGATTAGCACCGTCACGCTTAGATATA
DNA 2: CGCGTATATCTAAGCGTGACGGTGCTAATCGTCACTATATCTAAGAGTGACGGTGCTAATCGTCACTGAGCT
For the molecule B1, the binding result was “binds”.

(Values after patent US20080248467, “System for pulling out regulatory elements using yeast” (published 2008).)
